Non-standard residues stand in square brackets, D forms with d. 2Nal = N[C@@H](Cc1ccc2ccccc2c1)C(=O)O; Sar = CNCC(=O)O
B1: …(N-Me-G)ADTD (peptide)
peptide: Ac-EDDSWVWWG[Sar]ADTD-NH2
SMILES: CC(=O)N[C@@H](CCC(=O)O)C(=O)N[C@@H](CC(=O)O)C(=O)N[C@@H](CC(=O)O)C(=O)N[C@@H](CO)C(=O)N[C@@H](Cc1c[nH]c2ccccc12)C(=O)N[C@H](C(=O)N[C@@H](Cc1c[nH]c2ccccc12)C(=O)N[C@@H](Cc1c[nH]c2ccccc12)C(=O)NCC(=O)N(C)CC(=O)N[C@@H](C)C(=O)N[C@@H](CC(=O)O)C(=O)N[C@H](C(=O)N[C@@H](CC(=O)O)C(N)=O)[C@@H](C)O)C(C)C
B2: peptide 38 (peptide)
peptide: Ac-ETEFIAWG[Sar]TGDED-NH2
SMILES: CC[C@H](C)[C@H](NC(=O)[C@H](Cc1ccccc1)NC(=O)[C@H](CCC(=O)O)NC(=O)[C@@H](NC(=O)[C@H](CCC(=O)O)NC(C)=O)[C@@H](C)O)C(=O)N[C@@H](C)C(=O)N[C@@H](Cc1c[nH]c2ccccc12)C(=O)NCC(=O)N(C)CC(=O)N[C@H](C(=O)NCC(=O)N[C@@H](CC(=O)O)C(=O)N[C@@H](CCC(=O)O)C(=O)N[C@@H](CC(=O)O)C(N)=O)[C@@H](C)O
B3: R4-20 (peptide)
peptide: Ac-RRRREDDD[2Nal]IDWYDSDDD-NH2
SMILES: CC[C@H](C)[C@H](NC(=O)[C@H](Cc1ccc2ccccc2c1)NC(=O)[C@H](CC(=O)O)NC(=O)[C@H](CC(=O)O)NC(=O)[C@H](CC(=O)O)NC(=O)[C@H](CCC(=O)O)NC(=O)[C@H](CCCNC(=N)N)NC(=O)[C@H](CCCNC(=N)N)NC(=O)[C@H](CCCNC(=N)N)NC(=O)[C@H](CCCNC(=N)N)NC(C)=O)C(=O)N[C@@H](CC(=O)O)C(=O)N[C@@H](Cc1c[nH]c2ccccc12)C(=O)N[C@@H](Cc1ccc(O)cc1)C(=O)N[C@@H](CC(=O)O)C(=O)N[C@@H](CO)C(=O)N[C@@H](CC(=O)O)C(=O)N[C@@H](CC(=O)O)C(=O)N[C@@H](CC(=O)O)C(N)=O
B4: …(N-Me-G)TGDED (peptide)
peptide: Ac-EDDSDVWWY[Sar]TGDED-NH2
SMILES: CC(=O)N[C@@H](CCC(=O)O)C(=O)N[C@@H](CC(=O)O)C(=O)N[C@@H](CC(=O)O)C(=O)N[C@@H](CO)C(=O)N[C@@H](CC(=O)O)C(=O)N[C@H](C(=O)N[C@@H](Cc1c[nH]c2ccccc12)C(=O)N[C@@H](Cc1c[nH]c2ccccc12)C(=O)N[C@@H](Cc1ccc(O)cc1)C(=O)N(C)CC(=O)N[C@H](C(=O)NCC(=O)N[C@@H](CC(=O)O)C(=O)N[C@@H](CCC(=O)O)C(=O)N[C@@H](CC(=O)O)C(N)=O)[C@@H](C)O)C(C)C
B5: …(N-Me-G)ADTD (peptide)
peptide: Ac-EDDSDVWWY[Sar]ADTD-NH2
SMILES: CC(=O)N[C@@H](CCC(=O)O)C(=O)N[C@@H](CC(=O)O)C(=O)N[C@@H](CC(=O)O)C(=O)N[C@@H](CO)C(=O)N[C@@H](CC(=O)O)C(=O)N[C@H](C(=O)N[C@@H](Cc1c[nH]c2ccccc12)C(=O)N[C@@H](Cc1c[nH]c2ccccc12)C(=O)N[C@@H](Cc1ccc(O)cc1)C(=O)N(C)CC(=O)N[C@@H](C)C(=O)N[C@@H](CC(=O)O)C(=O)N[C@H](C(=O)N[C@@H](CC(=O)O)C(N)=O)[C@@H](C)O)C(C)C
B6: …(N-Me-G)ADTD (peptide)
peptide: Ac-EDDSDVWWYG[Sar]ADTD-NH2
SMILES: CC(=O)N[C@@H](CCC(=O)O)C(=O)N[C@@H](CC(=O)O)C(=O)N[C@@H](CC(=O)O)C(=O)N[C@@H](CO)C(=O)N[C@@H](CC(=O)O)C(=O)N[C@H](C(=O)N[C@@H](Cc1c[nH]c2ccccc12)C(=O)N[C@@H](Cc1c[nH]c2ccccc12)C(=O)N[C@@H](Cc1ccc(O)cc1)C(=O)NCC(=O)N(C)CC(=O)N[C@@H](C)C(=O)N[C@@H](CC(=O)O)C(=O)N[C@H](C(=O)N[C@@H](CC(=O)O)C(N)=O)[C@@H](C)O)C(C)C
B7: …(N-Me-G)TGDED (peptide)
peptide: Ac-EDDSDVWWYG[Sar]TGDED-NH2
SMILES: CC(=O)N[C@@H](CCC(=O)O)C(=O)N[C@@H](CC(=O)O)C(=O)N[C@@H](CC(=O)O)C(=O)N[C@@H](CO)C(=O)N[C@@H](CC(=O)O)C(=O)N[C@H](C(=O)N[C@@H](Cc1c[nH]c2ccccc12)C(=O)N[C@@H](Cc1c[nH]c2ccccc12)C(=O)N[C@@H](Cc1ccc(O)cc1)C(=O)NCC(=O)N(C)CC(=O)N[C@H](C(=O)NCC(=O)N[C@@H](CC(=O)O)C(=O)N[C@@H](CCC(=O)O)C(=O)N[C@@H](CC(=O)O)C(N)=O)[C@@H](C)O)C(C)C

These binders were tested against Sushi domains (SD1/2) protein of GABAB1a (GB1a) (assay: FP competition vs TAMRA AJAP-1probe).
Sushi domains (SD1/2) protein of GABAB1a (GB1a), sequence (Q9Z0U4 29-158): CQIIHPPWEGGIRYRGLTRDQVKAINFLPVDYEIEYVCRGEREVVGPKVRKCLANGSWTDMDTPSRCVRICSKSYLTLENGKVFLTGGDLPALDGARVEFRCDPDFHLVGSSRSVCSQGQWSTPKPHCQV

Binder	Ki [nM]
Ac-RRREDDDWIDWYDSDDD-NH2 [R3-16]	6.4
Ac-EDDSDVWWGPTGDED-NH2 [hybrid peptide X]	62
Ac-EDDDWIDWYDSDDD-NH2 [peptide 16]	3.2
Ac-EDDYIDWYDSDDD-NH2 [peptide 18]	4.6
B1	36
Ac-ETEFIAWGGADTD-NH2 [hybrid peptide Y]	345
B2	32
Ac-RRRRRRREDDDWIDWGPTSDDD-NH2	65
Ac-RRRRRRRRGGGGSEDDDWIDWYDSDDD-NH2 [R8-FL-16]	280
Ac-EDDSWIWWYGADTD-NH2 [peptide 28]	18
Ac-ETEFIAWYGADTD-NH2 [peptide 37]	95
Ac-EDDDWIDWGPTSDDDEAAAKRRRRRRRR-NH2 [17-RL-R8]	139
Ac-RRRRRREDDDWIDWYDSDDD-NH2	70.9
B3	15
Ac-RRRRREDDDWIDWGPTSDDD-NH2	32
Ac-ETEFIAWYGPADTD-NH2	182
B4	142
Ac-RRRRRREDDDWIDWGPTSDDD-NH2	43.4
Ac-EDDDWIDWYDSDDDEAAAKRRRRRRRR-NH2 [16-RL-R8]	99.5
Ac-EDDDWIDWGPTSDDDGGGGSRRRRRRRR-NH2 [17-FL-R8]	147
Ac-EDDSWIDWYGADTD-NH2 [peptide 30]	11
Ac-RRRRRRRREDDDWIDWYDSDDD-NH2 [R8-16]	107

Binder	Ki [nM]
B5	201
Ac-ETEFIAWYPADTD-NH2	190
Ac-RRRREDDDWIDWGPTSDDD-NH2 [4R-17]	15
Ac-RRRRREDDDWIDWYDSDDD-NH2	39.5
B6	164
Ac-RRRREDDDWIDWYDSDDD-NH2 [4R-16]	20.6
B7	138
Ac-RRRRRRRREAAAKEDDDWIDWYDSDDD-NH2 [R8-RL-16]	314
Ac-RRRRRRRREAAAKEDDDWIDWGPTSDDD-NH2 [R8-RL-17]	105
Ac-EDDYIDWGPTSDDD-NH2 [peptide 19]	3.8
Ac-EDDSWIDWGPTGDED-NH2 [peptide 29]	5.6
Ac-EDDDWIDWYDSDDDRRRRRRRR-NH2 [16-R8]	65.3
Ac-RRRRRRRRGGGGSEDDDWIDWGPTSDDD-NH2 [R8-FL-17]	140
Ac-RRRRRRREDDDWIDWYDSDDD-NH2	89.1
Ac-EDDDWIDWYDSDDDGGGGSRRRRRRRR-NH2 [16-FL-R8]	118
Ac-RRRRRRRREDDDWIDWGPTSDDD-NH2 [R8-17]	58.1
Ac-ETEFIAWYGPTGDED-NH2	195
Ac-EDDDWIDWGPTSDDDRRRRRRRR-NH2 [17-R8]	123
Ac-RRREDDDWIDWGPTSDDD-NH2 [R3-17]	9
Ac-EDDDWIDWGPTSDDD-NH2 [peptide 17]	4
Ac-EDDSWIWWGPTGDED-NH2 [peptide 27]	16
